Data reported in the supplement of paper PMC9732359.
± gives the uncertainty stated by the source.

test: protein stability index of a GFP-peptide fusion (yeast GPS) (PSI 1-4); higher = more stable; sorted into four equal gates, so the index is relative within each strain; conditions: doa10∆
Method in brief: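 For each peptide, the protein stability index sums the read frequency in every gate after multiplying it by the gate number. Read frequencies came from plasmids that were PCR-amplified from each gate and Illumina-sequenced, with reads assigned to strains by barcodes. The gates were four equal bins of GFP/Cherry fluorescence ratio applied to mid-log yeast in leucine-free medium carrying a pooled library of tiled 17-residue yeast protein peptides fused downstream of GFP on a Cherry-expressing plasmid.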

With GGGRVDKPLLKAGRAFH [RPL2A] as the sequence, how does the protein stability index read?
Its protein stability index is 3.12 ± 0.048.

Which protein stability index does the source give for GGHSLEEISFSLSEGCD [PRP28] here?
Its protein stability index is 2.17 ± 0.11.

Which protein stability index does the source give for GGPWFTDGELDIEFINS [RPC34] here?
The protein stability index was 3.14 ± 0.15.

With GGRYVYPVHEAHKGQIV [SNU114] as the sequence, how does the protein stability index read?
Its protein stability index is 1.58 ± 0.12.

With GGSFGNREEFINKLVKA [RPL7B] as the sequence, how does the protein stability index read?
The protein stability index was 3.01 ± 0.22.

For GGSGNGDDVVNDVQGID [RPP1], which protein stability index is on record?
Its protein stability index is 3.54 ± 0.25.

With GGSRGGGSNYMSNLPFG [RPC31] as the sequence, how does the protein stability index read?
Its protein stability index is 2.94 ± 0.27.

For GHIGAYLIVAGVDPTGS [PUP1], which protein stability index is on record?
The protein stability index was 1.48 ± 0.1.

Which protein stability index does the source give for GHVGSVQISNIPDIGDL [PRP8] here?
Its protein stability index is 3.11 ± 0.067.

With GIAIGLNKGKKVTSMTP [RPL36A] as the sequence, how does the protein stability index read?
Its protein stability index is 3.08 ± 0.18.

With GIDPQDLKKLNLNVYIQ [CDC53] as the sequence, how does the protein stability index read?
Its protein stability index is 1.68 ± 0.14.

With GILRRKSESDELQMRSF [RRP4] as the sequence, how does the protein stability index read?
Its protein stability index is 3.06 ± 0.11.

For GINPNTFRIFHNHDTGC [YDL088C/ASM4], which protein stability index is on record?
The protein stability index was 1.83 ± 0.073.

Which protein stability index does the source give for GIRIKGKIVGFDEFMNV [SME1] here?
The protein stability index was 3.15 ± 0.068.

Which protein stability index does the source give for GISKKTRIAGVVYHPSN [RPS8A] here?
Its protein stability index is 2.53 ± 0.03.

Which protein stability index does the source give for GKEFEARNLIEDEDDGE [RPC53] here?
The protein stability index was 3.46 ± 0.16.

For GKIPTLKISLIQIFRAH [PRP8], which protein stability index is on record?
Its protein stability index is 1.72 ± 0.045.

For GKLVVSQEMVPRYFSEA [SIR3], which protein stability index is on record?
The protein stability index was 3.31 ± 0.086.

With GKVTDVRSTIKFQLKKV [RPL1A] as the sequence, how does the protein stability index read?
Its protein stability index is 3.77 ± 0.21.

With GKVVGDKWESYLNLLQE [RPB10] as the sequence, how does the protein stability index read?
The protein stability index was 3.24 ± 0.076.

Which protein stability index does the source give for GLFGNKPALGSLGSSST [YGR119C/NUP57] here?
The protein stability index was 3.34 ± 0.089.

For GLFGNKPNNTANTGGGL [YGL172W/NUP49], which protein stability index is on record?
The protein stability index was 3.66 ± 0.17.

Which protein stability index does the source give for GLGETSGDNHTQQSHEQ [RPT4] here?
The protein stability index was 3.32 ± 0.14.

For GLLDLERVIVVTGFAEV [FAS2], which protein stability index is on record?
Its protein stability index is 2.9 ± 0.17.

For GLLSQAIGCIERSDLLP [YJR042W/NUP85], which protein stability index is on record?
Its protein stability index is 2.37 ± 0.07.

With GLRTENVLDYFAESPFF [MED6] as the sequence, how does the protein stability index read?
The protein stability index was 3.35 ± 0.12.

Which protein stability index does the source give for GLSKEDDVRDFVIRREV [RPS6A] here?
Its protein stability index is 3.42 ± 0.094.

With GLTNWAAAYATGLLIAR [RPL5] as the sequence, how does the protein stability index read?
The protein stability index was 1.39 ± 0.18.

For GLVDENKVEAFKSLYTF [YAR002W/NUP60], which protein stability index is on record?
Its protein stability index is 3.01 ± 0.089.

For GLWGFSTATRNVTMIDD [COR1], which protein stability index is on record?
Its protein stability index is 3.18 ± 0.083.

With GMPNMPGMPNMPGMPNM [SRP54] as the sequence, how does the protein stability index read?
The protein stability index was 3.37 ± 0.088.

For GNAPATPSSDQNPLPTR [SOH1], which protein stability index is on record?
The protein stability index was 3.44 ± 0.13.

For GNENFEDFDVEHFSDEE [RPO26], which protein stability index is on record?
The protein stability index was 3.05 ± 0.088.

Which protein stability index does the source give for GNGLVDENKVEAFKSLY [YAR002W/NUP60] here?
The protein stability index was 3.35 ± 0.1.

With GNIFADLLPNSFAKLVP [SMC2] as the sequence, how does the protein stability index read?
The protein stability index was 2.36 ± 0.045.

For GNMCRGGRMFAPTKTWR [RPL4A], which protein stability index is on record?
The protein stability index was 2.92 ± 0.078.

Which protein stability index does the source give for GNNPSWVNNPKKRFTPH [YDL088C/ASM4] here?
The protein stability index was 3.42 ± 0.23.

For GNRNSSSVFLPSRKDCM [BRR2], which protein stability index is on record?
The protein stability index was 3.18 ± 0.086.

For GNSFNKSSNDTIEHAAD [YCG1], which protein stability index is on record?
The protein stability index was 2.14 ± 0.058.

With GPEITPEEATTIFSVMV [PRP8] as the sequence, how does the protein stability index read?
The protein stability index was 2.09 ± 0.13.

With GPGFKFVDLNEKELQNE [SRB4] as the sequence, how does the protein stability index read?
The protein stability index was 2.64 ± 0.17.

For GPSIYKTDPAGYYVGYK [SCL1], which protein stability index is on record?
Its protein stability index is 3.17 ± 0.092.

For GPVGKECADLWPRVASN [RPL23A], which protein stability index is on record?
Its protein stability index is 3.2 ± 0.13.

With GQEYPRIIGLSATLPNY [BRR2] as the sequence, how does the protein stability index read?
The protein stability index was 1.9 ± 0.047.

Which protein stability index does the source give for GQFVTLGCTLVTLLANV [RMP1] here?
The protein stability index was 2.8 ± 0.11.

Which protein stability index does the source give for GQQKIILSKKWGFTNLD [RPL10] here?
Its protein stability index is 2.68 ± 0.22.

For GQRPDRATTYEKLTMVF [SIN4], which protein stability index is on record?
The protein stability index was 1.27 ± 0.087.

For GQVSMSQFNGSGNGSNP [PGD1], which protein stability index is on record?
The protein stability index was 3.3 ± 0.11.

With GRETILSNFNADINLEE [SIR3] as the sequence, how does the protein stability index read?
The protein stability index was 3.14 ± 0.094.

Which protein stability index does the source give for GRKHVAALRTVKSLVDN [RPL9A] here?
The protein stability index was 2.99 ± 0.12.

With GRLASTIAKQVLNGQKI [RPL16B] as the sequence, how does the protein stability index read?
Its protein stability index is 3.42 ± 0.28.

With GRLEIFKIHTAKVKKTG [RPT4] as the sequence, how does the protein stability index read?
Its protein stability index is 2.13 ± 0.11.

For GRPETYIWRYLPAPPVC [RPO31], which protein stability index is on record?
Its protein stability index is 1.5 ± 0.18.

Which protein stability index does the source give for GRPRYDTFGEGIIITDQ [BRR2] here?
Its protein stability index is 3.02 ± 0.15.

With GRSNEIVKTTTKQRLDA [PRP8] as the sequence, how does the protein stability index read?
Its protein stability index is 3.06 ± 0.073.

Which protein stability index does the source give for GSADIGASVISLTKDKS [SIR4] here?
The protein stability index was 3.01 ± 0.086.

Which protein stability index does the source give for GSAINHHRIFDSSAHFK [YMR129W/POM152] here?
The protein stability index was 2.57 ± 0.049.

Which protein stability index does the source give for GSDKQMFTQIYLERIEL [YML103C/NUP188] here?
The protein stability index was 2.5 ± 0.095.

Which protein stability index does the source give for GSENKRGSLDSEHVFDY [NUT1] here?
Its protein stability index is 3.37 ± 0.14.

For GSFKYITARSAFVEFGA [SWP82], which protein stability index is on record?
Its protein stability index is 2.62 ± 0.11.

With GSGAANENPYNNGVSNL [COR1] as the sequence, how does the protein stability index read?
The protein stability index was 3.02 ± 0.17.

Which protein stability index does the source give for GSGQPDNDTVVTNDDKS [SRB8] here?
The protein stability index was 3.08 ± 0.23.

For GSKISSNDLDKFFQKKI [YGL172W/NUP49], which protein stability index is on record?
The protein stability index was 1.72 ± 0.069.

For GSKSDGSAATSGFEFSK [RPN1], which protein stability index is on record?
The protein stability index was 2.7 ± 0.14.

With GSRKVAGILRGYDIFLN [SMX2] as the sequence, how does the protein stability index read?
The protein stability index was 2.5 ± 0.11.

Which protein stability index does the source give for GSSKPAFSFGAKPDEKK [YJL041W/NSP1] here?
Its protein stability index is 3.19 ± 0.17.

For GSVSEETELFEPGVLNT [ECM29], which protein stability index is on record?
The protein stability index was 3.28 ± 0.16.

For GTAIGAIGAQSIGEPGT [RPO31], which protein stability index is on record?
The protein stability index was 3.12 ± 0.11.

With GTCFGGSKLEDMSKILV [RET1] as the sequence, how does the protein stability index read?
The protein stability index was 3.04 ± 0.074.

With GTGKPEAIHDMFTYSQE [RPN2] as the sequence, how does the protein stability index read?
The protein stability index was 2.8 ± 0.16.

Which protein stability index does the source give for GTILSSAGDDGKVRLWK [YGL100W/SEH1] here?
Its protein stability index is 3.27 ± 0.12.

Which protein stability index does the source give for GTLEGHNGWVTSLATSA [ASC1] here?
Its protein stability index is 2.61 ± 0.063.

For GTLLREDDNTPAGHAGN [YDL088C/ASM4], which protein stability index is on record?
Its protein stability index is 3.03 ± 0.084.

For GTNKDMILKLVCQVTKF [ECM29], which protein stability index is on record?
Its protein stability index is 1.55 ± 0.058.

Which protein stability index does the source give for GTNNISQHGQGNNPSWV [YDL088C/ASM4] here?
The protein stability index was 3.01 ± 0.078.

For GTSTTHGSISPQEESVS [SIR3], which protein stability index is on record?
Its protein stability index is 2.14 ± 0.043.

Which protein stability index does the source give for GTVSRVNRLLSVIPLKG [RRP4] here?
The protein stability index was 1.25 ± 0.058.

For GTYIQERNPTQRPQRRY [RPS10A], which protein stability index is on record?
Its protein stability index is 3.01 ± 0.051.

Which protein stability index does the source give for GVAMNPVDHPHGGGNHQ [RPL2A] here?
The protein stability index was 2.9 ± 0.27.

Which protein stability index does the source give for GVCNHAFHLHCINKWIK [HRT1] here?
The protein stability index was 1.77 ± 0.045.

Which protein stability index does the source give for GVDLKLKYSKRRSLKKQ [CSN12] here?
The protein stability index was 2.89 ± 0.074.

For GVEQLHYTGISQSACRE [SSN3], which protein stability index is on record?
The protein stability index was 2.69 ± 0.089.

Which protein stability index does the source give for GVGKRKVWLDPNETSEI [RPL19A] here?
Its protein stability index is 3.13 ± 0.23.

For GVTKGYKYKMRYVYAHF [RPL9A], which protein stability index is on record?
Its protein stability index is 2.73 ± 0.14.

For GVVQMVTDNKTPEMNVT [TAF14], which protein stability index is on record?
Its protein stability index is 2.78 ± 0.16.

Which protein stability index does the source give for GVVRYVMESGAKGCEVV [RPS3] here?
Its protein stability index is 1.29 ± 0.097.

Which protein stability index does the source give for GVWDVDNPLRQIPHFNN [BRR2] here?
The protein stability index was 3.26 ± 0.077.

With GWKPYYKLFIWLVVPTI [YML031W/NDC1] as the sequence, how does the protein stability index read?
Its protein stability index is 1.28 ± 0.049.

With GYDIFLNVVLDDAMEIN [SMX2] as the sequence, how does the protein stability index read?
Its protein stability index is 3.13 ± 0.064.

With GYDKSGAHLLEFQPSGN [PRE5] as the sequence, how does the protein stability index read?
The protein stability index was 2.68 ± 0.25.

Which protein stability index does the source give for GYLIQVLLTFLQDELHK [YCS4] here?
The protein stability index was 2.97 ± 0.1.

Which protein stability index does the source give for GYQWGEENKDIMNVLSE [PRP8] here?
Its protein stability index is 2.8 ± 0.22.

Which protein stability index does the source give for HAKRKTVTSLDVVYALK [HHF1] here?
Its protein stability index is 3.54 ± 0.18.
